# Data: patent publication US20220362394A1 (SUTRO BIOPHARMA, published 2022)
# Residue numbers refer to the chain shown, from its start.
# B1: 2137-C07 (antibody, V domains shown)
# VH: EVQLVESGGGLVQPGGSLRLSCAASGFNISGSGIHWVRQAPGKGLEWVGFINPAGGYTDYADSVKGRFTISADTSKNTAYLQMNSLRAEDTAVYYCARDYVYQYWTYVLDYWGQGTLVTVSS
# VL: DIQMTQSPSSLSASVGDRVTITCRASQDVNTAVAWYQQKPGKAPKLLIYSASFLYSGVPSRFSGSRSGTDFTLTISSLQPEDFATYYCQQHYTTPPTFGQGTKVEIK
# notes: IgG1 with His/FLAG tag, cell-free expressed, trastuzumab LC; also called Antibody 1
# B2: 2213-A06 (antibody, V domains shown)
# VH: EVQLVESGGGLVQPGGSLRLSCAASGFNISSYAIHWVRQAPGKGLEWVGVISPYGGYTEYADSVKGRFTISADTSKNTAYLQMNSLRAEDTAVYYCARDFYDRYSTYVLDYWGQGTLVTVSS
# VL: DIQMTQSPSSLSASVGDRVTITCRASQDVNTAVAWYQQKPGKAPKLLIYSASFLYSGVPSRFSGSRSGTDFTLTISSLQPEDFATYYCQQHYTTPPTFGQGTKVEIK
# notes: also called Antibody 23
# B3: 2265-C02 (antibody, V domains shown)
# VH: B1 VH with S30G, G31V, D62G, V101I, Q103S
# VL: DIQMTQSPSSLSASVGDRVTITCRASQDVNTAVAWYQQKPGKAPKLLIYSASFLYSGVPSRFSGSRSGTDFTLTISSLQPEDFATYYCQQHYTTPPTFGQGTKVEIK
# notes: also called Antibody 12
# B4: 2265-D11 (antibody, V domains shown)
# VH: B1 VH with S32P, G55A, V101I
# VL: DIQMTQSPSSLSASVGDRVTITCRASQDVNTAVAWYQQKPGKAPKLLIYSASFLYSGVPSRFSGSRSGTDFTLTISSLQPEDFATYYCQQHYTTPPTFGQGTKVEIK
# notes: also called Antibody 9
# B5: 2265-E02 (antibody, V domains shown)
# VH: B1 VH with S30Y, G31V, M83T
# VL: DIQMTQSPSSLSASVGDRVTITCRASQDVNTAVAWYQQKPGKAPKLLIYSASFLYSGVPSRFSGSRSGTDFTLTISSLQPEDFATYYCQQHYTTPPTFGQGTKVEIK
# notes: also called Antibody 8
# B6: 2265-F02 (antibody, V domains shown)
# VH: B1 VH with G31A, S32P, V101I, Y102R
# VL: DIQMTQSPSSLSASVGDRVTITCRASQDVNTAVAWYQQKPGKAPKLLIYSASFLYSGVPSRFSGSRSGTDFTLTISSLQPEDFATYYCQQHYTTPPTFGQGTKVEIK
# notes: also called Antibody 4; Antibody 2265-F02
# B7: 2265-A06 (antibody, V domains shown)
# VH: B1 VH with S30Y, G31R, Y102P
# VL: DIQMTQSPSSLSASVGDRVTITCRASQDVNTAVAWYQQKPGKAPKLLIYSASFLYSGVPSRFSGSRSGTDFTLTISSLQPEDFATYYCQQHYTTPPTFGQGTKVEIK
# notes: also called Antibody 13
# B8: 2265-A09 (antibody, V domains shown)
# VH: B1 VH with S30I, S32P, Q103N
# VL: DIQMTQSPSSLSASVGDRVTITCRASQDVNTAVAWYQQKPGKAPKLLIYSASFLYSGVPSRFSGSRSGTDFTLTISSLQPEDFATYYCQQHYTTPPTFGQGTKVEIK
# notes: also called Antibody 6
# B9: 2265-B06 (antibody, V domains shown)
# VH: B1 VH with S30R, G31V, Y102Q, Q103A
# VL: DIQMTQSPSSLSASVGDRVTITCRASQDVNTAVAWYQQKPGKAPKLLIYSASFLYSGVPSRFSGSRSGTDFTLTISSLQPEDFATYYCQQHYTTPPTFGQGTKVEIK
# notes: also called Antibody 5
# B10: 2265-C03 (antibody, V domains shown)
# VH: B1 VH with S25P, G31V, S32P, Y102P
# VL: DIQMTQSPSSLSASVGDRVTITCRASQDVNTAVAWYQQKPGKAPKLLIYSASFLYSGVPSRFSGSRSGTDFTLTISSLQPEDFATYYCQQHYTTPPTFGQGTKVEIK
# notes: also called Antibody 11
# B11: 2265-D05 (antibody, V domains shown)
# VH: B1 VH with S32P, G55A, T69A, Y100F, Q103A
# VL: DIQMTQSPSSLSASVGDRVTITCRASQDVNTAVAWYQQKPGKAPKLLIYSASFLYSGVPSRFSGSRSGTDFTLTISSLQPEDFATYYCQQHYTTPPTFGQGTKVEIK
# notes: also called Antibody 10
# B12: 2265-F03 (antibody, V domains shown)
# VH: B1 VH with S30R, S32P, N52S, G55A, Y100F, Y102Q, Q103S
# VL: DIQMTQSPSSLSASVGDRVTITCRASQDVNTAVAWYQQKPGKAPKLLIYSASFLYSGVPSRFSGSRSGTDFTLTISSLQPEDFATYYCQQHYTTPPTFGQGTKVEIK
# notes: also called Antibody 7
# B13: 2265-F05 (antibody, V domains shown)
# VH: B1 VH with S30I, G31A, S32P, Y102N, Q103A
# VL: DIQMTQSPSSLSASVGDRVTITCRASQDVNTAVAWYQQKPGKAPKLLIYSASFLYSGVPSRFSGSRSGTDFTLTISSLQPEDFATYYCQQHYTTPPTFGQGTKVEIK
# notes: also called Antibody 3
# B14: 2265-F06 (antibody, V domains shown)
# VH: B1 VH with G31Y, S32P, V101I, Y102L
# VL: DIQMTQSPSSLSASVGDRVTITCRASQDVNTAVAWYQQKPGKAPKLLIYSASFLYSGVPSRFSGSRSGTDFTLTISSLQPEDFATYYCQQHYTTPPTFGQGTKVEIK
# notes: also called Antibody 2
# B15: 2290-C07 (antibody, V domains shown)
# VH: EVQLVESGGGLVQPGGSLRLSCAASGFNITYDWIHWVRQAPGKGLEWVGVITPFDGYTYYADSVKGHFTISADTSKNTAYLQMNSLRAEDTAVYYCARDMGVGYWVGFSDYWGQGTLVTVSS
# VL: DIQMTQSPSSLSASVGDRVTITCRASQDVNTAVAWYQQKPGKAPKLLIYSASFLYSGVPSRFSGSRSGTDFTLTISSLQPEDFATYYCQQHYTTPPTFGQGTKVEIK
# notes: also called Antibody 19
# B16: 2290-G01 (antibody, V domains shown)
# VH: B15 VH with T30S, Y31P, D32Y, F54P, D55S, Y57F, H67R, M83V, M100L
# VL: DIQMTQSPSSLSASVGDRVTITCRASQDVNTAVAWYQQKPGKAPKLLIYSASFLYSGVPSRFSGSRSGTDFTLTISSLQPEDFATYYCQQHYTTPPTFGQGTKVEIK
# notes: also called Antibody 17
# B17: 9A8 (antibody, V domains shown)
# VH: AVTLDESGGGLQTPGGTLSLVCKASGFTFSSFNMFWVRQAPGKGLEWVAYIRNDGNSASYGPAVKGRATISRDNGQSTVRLQLNNLRAEDTATYYCAKTTCIGSGGCIDTWGHGTEVIVSS
# VL: ALTQPSSVSANPGETVKITCSGGSSDYGWFQQKSPGSAPVTVIYSNNQRPSGIPSRFSGSKSGSTGTLTITGVQAEDEAIYYCANVDYTDDVFGAGTTLTVL
# notes: Chicken HybriFree-derived antibody; also called Antibody 30
# B18: 10G5 (antibody, V domains shown)
# VH: B17 VH with T17V, R52S, N56S, A58T, Y95F
# VL: B17 VL with S24N, S25Y, F30Y, V42L, S45Y, Q48K, G52D, Y88S
# notes: Chicken HybriFree-derived antibody; also called Antibody 31
# Assays:
# cynomolgus BCMA on cells = cynomolgus BCMA on cells (cynomolgus monkey, UniProt Q02223 1-184 (human entry)); assay: FACS, 293T-cynoBCMA cells
# Description: (§1) Variants for which sufficient protein was purified in secondary screening were tested in a fluorescence-activated cell sorting (FACS) cell-binding assay. […] 6-12 point dilutions of anti-BCMA variants starting from concentrations of about 100-200 nM antibody were dispensed into each well using a BioMekFX (Beckman Coulter). Cells were then incubated on ice for 1 hr, washed with FACS buffer and incubated for 1 hr on ice with […] FACS buffer containing 2.5 μg/ml Alexa647-conjugated Goat Anti-Human IgG dispensed using BioMekFX (Beckman Coulter). Cells were then washed 2× with FACS buffer and fixed for 10 minutes in […] PBS with 2% paraformaldehyde (PFA) prior to fluorescence detection. Samples were acquired using a Beckton Dickinson LSRII FACS. Geometric Mean Fluorescence Intensity of BCMA antibody binding was analyzed using FlowJo® software (Tree Star, Inc.).
# human BCMA-Fc [1] = target: T1, human BCMA-Fc (human, UniProt Q02223 1-54); assay: SPR Biacore, antibody captured, 25 C
# T1 construct: Bought from R&D Systems; also called huBCMA-Fc; not shown: Fc part not described
# T1 sequence: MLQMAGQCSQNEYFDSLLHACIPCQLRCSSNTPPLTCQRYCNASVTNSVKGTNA
# Description: (§2) Anti-Fab or anti-Fc polyclonal antibodies were immobilized onto a CM5 chip (GE Life Sciences) using amine coupling chemistry (from Amine Coupling Kit, GE Life Sciences). The immobilization steps were carried out at a flow rate of 25 μL/min in 1×HBS-EP+ buffer (GE Life Sciences; 10× Stock diluted before use). The sensor surfaces were activated for 7 min with a mixture of NHS (0.05 M) and EDC (0.2 M). The anti-Fab or anti-Fc antibodies were injected over all 4 flow cells at a concentration of 25 μg/ml in 10 mM sodium acetate, pH 4.5, for 7 min. Ethanolamine (1 M, pH 8.5) was injected for 7 min to block any remaining activated groups.
# (§3) Off-rate and kinetic binding experiments were performed at 25° C. using 1×HBS-EP+ buffer. […] After capturing ligand (antibody) on the anti-Fab or anti-Fc surface, the analyte (human BCMA-Fc, cyno BCMA-Fc, or human BCMA from R&D Systems, custom protein production, or Sigma Aldrich, respectively) was bound for 180 seconds, followed by a 600 second dissociation phase at a flow rate of 50 μL/min. Between each ligand capture and analyte binding cycle, regeneration was carried out using 2 injections of 10 mM glycine pH 2.0 for 30 seconds at 30 μL/min, followed by a 30 second buffer wash step.
# (§4) The data was fit with the Biacore T200 Evaluation software, using a 1-1 Langmuir binding model. KD (affinity, nM) was determined as a ratio of the kinetic rate constants calculated from the fits of the association and dissociation phases.
# human BCMA on cells = target: T2, human BCMA on cells (human, UniProt Q02223 1-184); assay: FACS, NCI-H929 cells
# T2 construct: also called hBCMA; BCMA on NCI-H929, ARP-1, OPM-2, U266B1, MM.1S, RPMI-8226 cells
# T2 sequence: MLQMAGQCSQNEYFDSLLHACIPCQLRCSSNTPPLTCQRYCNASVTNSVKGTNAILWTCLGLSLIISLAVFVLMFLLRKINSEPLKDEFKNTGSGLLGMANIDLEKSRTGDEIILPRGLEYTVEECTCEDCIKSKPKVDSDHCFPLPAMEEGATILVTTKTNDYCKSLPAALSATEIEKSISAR
# Description: as §1
# human BCMA-Fc [2] = target: T1, human BCMA-Fc; assay: ELISA, coated huBCMA-Fc
# cyno BCMA-Fc [3] = target: T3, cyno BCMA-Fc (cynomolgus monkey, UniProt Q02223 1-54 (human entry)); assay: ELISA, coated cynoBCMA-Fc
# T3 construct: Custom protein production; also called cynomolgus BCMA-Fc; not shown: Fc part not described
# cyno BCMA-Fc [4] = target: T3, cyno BCMA-Fc; assay: SPR Biacore, antibody captured, 25 C
# Description: as §2, §3, §4
# cynomolgus BCMA on cells, sequence (Q02223 other isoform, or with tags, fused parts or gaps): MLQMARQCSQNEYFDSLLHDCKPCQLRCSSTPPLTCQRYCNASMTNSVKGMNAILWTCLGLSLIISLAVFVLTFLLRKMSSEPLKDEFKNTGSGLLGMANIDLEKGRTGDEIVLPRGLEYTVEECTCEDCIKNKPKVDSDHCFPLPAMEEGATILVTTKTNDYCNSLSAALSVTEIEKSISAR
Binder,Bmax (cynomolgus BCMA on cells) [MFI],Kd (cynomolgus BCMA on cells) [nM],Kd (human BCMA-Fc [1]) [nM],koff (human BCMA-Fc [1]) [s⁻¹],kon (human BCMA-Fc [1]) [M⁻¹ s⁻¹],Bmax (human BCMA on cells) [MFI],Kd (human BCMA on cells) [nM],Bmax (human BCMA-Fc [2]),EC50 (human BCMA-Fc [2]) [nM],Bmax (cyno BCMA-Fc [3]),EC50 (cyno BCMA-Fc [3]) [nM],Kd (cyno BCMA-Fc [4]) [nM],koff (cyno BCMA-Fc [4]) [s⁻¹],kon (cyno BCMA-Fc [4]) [M⁻¹ s⁻¹]
B1,18500,10.1,1.63,0.000745,457000,–,–,–,–,–,–,–,–,–
B2,3620,15.1,2.08,0.00283,1.36e+06,2510,5.3,3.68e+06,0.2,2.23e+06,39,–,–,–
B3,24100,4.9,0.758,0.000567,747000,11500,4.4,–,–,–,–,4.22,0.00137,325000
B4,21300,3.8,0.701,0.000537,766000,10900,4,–,–,–,–,3.24,0.00116,358000
B5,21800,5,0.67,0.000383,571000,12200,4.5,–,–,–,–,5.75,0.00153,266000
B6,23800,6.2,0.499,0.000293,587000,11700,5.2,–,–,–,–,3.68,0.00116,315000
B7,22100,3.8,0.789,0.000392,497000,11100,5.7,–,–,–,–,6.24,0.00156,249000
B8,18500,3,0.589,0.000318,539000,12700,10.3,–,–,–,–,6.43,0.00173,270000
B9,26700,5.1,0.546,0.000385,705000,11600,4.5,–,–,–,–,3.67,0.0013,354000
B10,–,–,0.724,0.000425,587000,12500,5.3,–,–,–,–,5.83,0.00177,304000
B11,21900,2.5,0.702,0.000485,691000,9620,4.4,–,–,–,–,4.53,0.00147,325000
B12,17400,2.5,0.633,0.000474,749000,11200,4.3,–,–,–,–,7.9,0.00274,346000
B13,26600,3.4,0.469,0.00024,512000,11900,6.2,–,–,–,–,4.39,0.00114,260000
B14,25800,3.4,0.276,0.000193,699000,11400,4.5,–,–,–,–,3.84,0.00133,347000
B15,78100,6.7,0.612,0.000221,361000,–,–,4.12e+06,0.2,3.81e+06,0.2,–,–,–
B16,77100,4.7,0.445,0.000318,714000,–,–,4.83e+06,0.3,4.6e+06,0.3,–,–,–
B17,17800,8.87,–,–,–,21100,33,–,–,–,–,–,–,–
B18,24400,7.33,–,–,–,25800,65.8,–,–,–,–,–,–,–
